The text below walks through data of patent publication US7341836B2, “Modified cyclic nucleotide gated ion channels” (The Regents of the University of Colorado, priority 2001, dated 2008).

Values joined by “and” are separate entries in the source; they are usually repeats but may differ in a detail not shown here. Equal entries are not always repeated.

Test [1] deals with PDE activity in GH4C1 cells. Kind of test: Effect of PDE inhibitors, forskolin and VIP on cAMP levels (Ca2+ influx through CNG channels). In kind it is cell-based, rat. To be noted: basal cAMP; C460W/E583M channels; inhibitor concentration (μM). On the procedure: To further test the utility of this approach, PDE activity in excitable GH4C1 pituitary cells was examined. In all of the experiments shown (See, FIGS. 13-14, and Table 2), 1 μM nimodipine was added at time zero to block Ca^2+ influx though voltage-gated Ca^2+ channels (triggered by membrane depolarization due to Ca^2+ and Na^+ influx through CNG channels). […] FIGS. 13 and 14 each depict experiments done on a single batch of cells. As before, similar results were obtained on three other batches. In the experiments that produced the data shown in Table 2, cAMP concentrations were monitored using Ca^2+ influx through C460W/E583M channels. […] Either 100 μM IBMX or vehicle (-IBMX; control) were added at time zero. Then, 50 μM forskolin were added at 180 seconds d(ΔF/F0)/dt, which is proportional to the Ca^2+ influx rate, was estimated as described in the Examples. Data are provided as mean±standard error. IBMX or vehicle was added at 60 seconds (first arrow in FIG. 13). Either 10 μM forskolin or 100 nM VIP were added at 240 seconds (second arrow in FIG. 13). In the absence of IBMX, large forskolin or VIP-induced increases in Ca^2+ influx were observed. […] This level of basal AC activity was quite different from that observed in HEK-293 cells (See, FIGS. 9 and 10). 1 μM nimodipine was added at time 0 to block endogenous voltage-gated Ca^2+ channels.
To identify the PDE family or families that regulate the local cAMP concentration in GH4C1 cells, cAMP accumulation was monitored in the presence and absence of PDE inhibitors (See, Table 2). Again, the high cAMP affinity C460W/E583M channels were used. PDE inhibitors were added at 60 s. Although the addition of IBMX alone triggered Ca^2+ influx, 10 μM forskolin were added at 240 s as a positive control for CNG channel activity. […] This PDE is likely to have a low Km for cAMP because it is capable of regulating cAMP at concentrations too low for the WT or Δ61-90/C460W/E583M channels to detect. Thus, it is contemplated that a Ca^2+-CaM stimulated PDE (type I) is primarily responsible for controlling basal cAMP signals in GH4C1 cells.
In addition, PDE activity was monitored using Δ61-90/C460W/E583M channels to detect changes in cAMP concentration (See, FIG. 14). PDE inhibitors and forskolin were added as described above. With this construct, it was not possible to observe changes in cAMP concentration due to inhibition of PDE activity alone. […] Inhibitors specific to other PDE types had no effect on the forskolin-induced Ca^2+ influx (data not shown). […] It is contemplated that Ca^2+ influx through the C460W/E583M channels was saturated at cAMP concentrations below the Km for this PDE. Thus, it is contemplated that there are two different PDE types that regulate local cAMP signals in GH4C1 cells: a low Km, 8-methoxymethyl-IBMX sensitive PDE (type I); and a high Km, RO-20-1724-, rolipram-sensitive PDE (type IV).
GH4C1 rat pituitary cells (ATCC) were maintained in 13 mL Ham's F-10 medium (Life Technologies) supplemented with 14.3 mM NaHCO3, 15% donor horse serum (Gemini), and 2.5% fetal bovine serum, pH 6.8, in 75 cm^2 flasks at 37° C. in a humidified atmosphere of 95% air and 5% CO2. Cells were split weekly (1:4) and washed with fresh medium twice weekly. Cells were plated at ˜60% confluence in 100 mm culture dishes twenty-four hours prior to infection with the CNG-channel-encoding adenovirus constructs (multiplicity of infection=50 plaque forming units per cell). Forty-eight hours post-infection cells were detached, resuspended in serum-containing medium, and assayed within 12 hours.
In this Example, experiments conducted to examine the response of excitable GH4C1 pituitary cells to stimulation by either forskolin or the hormone vasoactive intestinal peptide (VIP), in the presence of absence of PDE inhibitors are described. […]

The target of test [2] is T1, PDE II (Homo sapiens, UniProt O00408).
T1 construct: host or cells: heterologously expressed human PDE; human heart
T1 sequence (O00408 whole entry): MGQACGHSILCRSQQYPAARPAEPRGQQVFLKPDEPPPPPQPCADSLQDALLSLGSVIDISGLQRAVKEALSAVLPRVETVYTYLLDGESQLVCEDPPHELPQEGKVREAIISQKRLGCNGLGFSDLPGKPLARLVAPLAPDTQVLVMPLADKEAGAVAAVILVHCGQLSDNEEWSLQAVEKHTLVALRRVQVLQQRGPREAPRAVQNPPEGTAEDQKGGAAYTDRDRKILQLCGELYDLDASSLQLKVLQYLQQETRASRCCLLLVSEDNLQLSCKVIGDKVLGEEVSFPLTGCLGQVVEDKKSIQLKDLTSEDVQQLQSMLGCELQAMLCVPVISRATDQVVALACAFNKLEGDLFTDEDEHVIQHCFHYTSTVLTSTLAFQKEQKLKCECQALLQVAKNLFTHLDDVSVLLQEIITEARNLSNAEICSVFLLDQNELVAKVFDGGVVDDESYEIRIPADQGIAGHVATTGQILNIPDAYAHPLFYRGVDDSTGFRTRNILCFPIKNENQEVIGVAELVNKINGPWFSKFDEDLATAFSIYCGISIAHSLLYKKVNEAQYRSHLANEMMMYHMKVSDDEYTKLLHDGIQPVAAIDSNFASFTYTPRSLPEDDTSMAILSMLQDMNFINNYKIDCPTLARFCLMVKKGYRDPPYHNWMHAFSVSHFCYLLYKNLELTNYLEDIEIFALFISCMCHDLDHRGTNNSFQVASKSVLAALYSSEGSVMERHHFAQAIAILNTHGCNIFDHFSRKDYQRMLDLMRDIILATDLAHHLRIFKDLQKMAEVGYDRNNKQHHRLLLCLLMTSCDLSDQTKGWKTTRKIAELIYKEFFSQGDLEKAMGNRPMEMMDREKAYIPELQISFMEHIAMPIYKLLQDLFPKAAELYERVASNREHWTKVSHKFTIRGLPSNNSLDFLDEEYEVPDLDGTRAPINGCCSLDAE
To be noted: read-out: IC50, PDE II; cited from earlier work.

Test [3] has as its system PDE III. As to conditions: cited from earlier work.
The test system of test [4] is rat olfactory CNG channel α subunit. Briefly: Excised inside-out patch recordings, cyclic nucleotide dose-response of CNG channel constructs. As to conditions: for Imax^cGMP/Imax^cAMP: current at saturating cGMP divided by current at saturating cAMP. It is filed as biochemical. On the procedure: As described in greater detail herein, the effects of modifications to CNG channels were assessed using the Hill equation, I/Imax=[cNMP]^N/([cNMP]^N+K1/2^N), where I/Imax is the fraction of maximal current, cNMP represents cyclic nucleotide, K1/2 is the concentration that gives half-maximal current, and N is the Hill coefficient, an index of cooperativity. I/Imax^cGMP/Imax^cAMP is the current induced by saturating cGMP divided by the current induced by saturating cAMP. Data (mean±standard deviation of three experiments) were obtained from excised membrane patches using standard patch clamp techniques.
To assess the cyclic nucleotide sensitivity of different CNG channel constructs, excised, inside-out patch recordings were made at room temperature (20-21° C.) using an Axopatch-200A patch clamp amplifier (Axon Instruments Inc.). Pipettes were pulled from borosilicate glass and heat polished. Pipettes were lowered onto the cells and gigaohm seals were formed. Patches were excised by shearing cells from the pipette with a jet of liquid. Ionic currents were elicited by 250 ms pulses to membrane potentials of +50 and −50 mV from a holding potential of 0 mV. Current records were sampled at five times the filter setting and stored on an IBM compatible computer. Records were corrected for errors due to series resistance (pipette resistance was 4.1 ±0.1 MΩ). Both the pipette and bath solutions contained (mM): 130 NaCl, 2 HEPES, 0.02 EDTA, and 1 EGTA, pH 7.6. Cyclic nucleotide-induced currents were obtained from the difference between currents in the presence and absence of cyclic nucleotides. Dose response curves for cAMP and cGMP were obtained at +50 and −50 mV in the same patch. The effects of the modifications were assessed using the Hill equation, I/Imax=[cNMP]^N/([cNMP]^N+K1/2^N), where I/Imax is the fraction of maximal current, cNMP represents cyclic nucleotide, K1/2 is the concentration that gives half-maximal current, and N is the Hill coefficient, an index of cooperativity. K1/2 and N for cAMP were 36±5 μM, 10±2 μM, 1.0±0.3 μM, and […] for WT, E583M, C460/E583M, and Δ61-90/C460W/E583M channels, respectively (See, Rich et al., J. Gen. Physiol. [2001], supra).
The cyclic nucleotide sensitivity of the C460W/E583M CNG channel was assessed in excised, inside-out patches as known in the art (See, Rich et al. [2001], supra). K1/2 and N were 1.1±0.3 μM and 2.1±0.4 at +50 mV; and 1.0±0.3 μM and 2.0 ±0.3 at −50 mV (n=11). With these values, the cAMP concentration could be calculated from currents measured in perforated patch experiments (Rich et al. Proc. Natl. Acad. Sci. [2001], supra).

For test [5], the system named is HEK-293 cells expressing CNG channels. Kind of test: Forskolin-induced cAMP accumulation monitored by Ca2+ influx (fura-2) through expressed CNG channels. In kind it is cell-based, human. As to conditions: 100 μM IBMX; forskolin 0-50 μM. The procedure:
Next, experiments were conducted to assess the ability of each channel construct to detect increases in local cAMP concentration. Changes in cAMP concentration were detected using fura-2 to monitor Ca^2+ influx through CNG channels, as described in the Examples. Ca^2+ influx induced by different concentrations of forskolin, an AC activator, in the presence of 100 μM IBMX, a nonselective PDE inhibitor was measured. This approach allowed comparisons to be made between the cAMP sensitivities of the different channels to changes in cAMP, regardless of variations in expression levels between experiments. In HEK-293 cells expressing the WT channel, addition of forskolin was followed by a brief delay and an increase in Ca^2+ influx (See, FIG. 7, Panel A). The delay decreased and the rate of Ca^2+ influx increased in a dose-dependent manner. Neither effect was saturated at 50 μM forskolin. In cells expressing the E583M channel, addition of forskolin was also followed by a brief delay and an increase in Ca^2+ influx (FIG. 7, Panel B). As with the WT channel, the delay and the initial rate of Ca^2+ influx were dose-dependent. […] In cells expressing the Δ61-90/C460W/E583M channel, addition of forskolin caused similar increases in Ca^2+ influx as the E583M channel, including saturation of the delay and rate of influx at 20 μM (compare FIG. 7, Panel B with FIG. 7, Panel D). The increased response of the modified channels to forskolin treatment is consistent with the apparent cAMP affinities measured in excised patches in the absence of Ca^2+-CaM (C460W/E583M>E583M˜Δ61-90/C460W/E583>WT channels). There are several factors that may have contributed to the apparent lack of a Ca^2+-CaM effect on the channels.
Briefly, HEK-293 were maintained in MEM (Life Technologies Inc.) supplemented with 26.2 mM NaHCO3, 10% (v/v) fetal bovine serum (Gemini), penicillin (50 μg/mL), and streptomycin ([…]), pH 7.0, at 37° C. in a humidified atmosphere of 95% air and 5% CO2. Cells were plated at ˜60% confluence in 100 mm culture dishes twenty-four hours prior to infection with the CNG-channel-encoding adenovirus constructs (multiplicity of infection=10 plaque forming units per cell). […] Twenty-four hours post-infection cells were detached with phosphate-buffered saline containing 0.03% EDTA, resuspended in serum-containing medium, and assayed within 12 hours.

With `COc1cc2c(cc1OC)-c1c/c(=N\c3c(C)cc(C)cc3C)n(C)c(=O)n1CC2` [Trequinsin], in test [1], the “d(ΔF/F0)/dt” value is 0 s⁻¹. The IC50 was 500 to 2000 nM in test [2] and 0.3 nM in test [3].

B1: Δ61-90/C460W/E583M: modified rat olfactory cyclic nucleotide-gated ion channel containing the Δ61-90/C460W/E583M mutation, SEQ ID NO:7 (protein, listed as Rattus norvegicus)
chain: MMTEKSNGVKSSPANNHNHHPPPSIKANGKDDHRAGSRPQSVAADDDTSPELQRLAEMDTPRPDSFLERFRGPELQTVTTHQGDDKGGKDGEGKGTKKKFELFVLDPAGDWYYRWLFVIAMPVLYNWCLLVARACFSDLQRNYFVVWLVLDYFSDTVYIADLIIRLRTGFLEQGLLVKDPKKLRDNYIHTLQFKLDVASIIPTDLIYFAVGIHSPEVRFNRLLHFARMFEFFDRTETRTSYPNIFRISNLVLYILVIIHWNACIYYVISKSIGFGVDTWVYPNITDPEYGYLAREYIYCLYWSTLTLTTIGETPPPVKDEEYLFVIFDFLIGVLIFATIVGNVGSMISNMNATRAEFQAKIDAVKHYMQFRKVSKDMEAKVIKWFDYLWTNKKTVDEREVLKNLPAKLRAEIAINVHLSTLKKVRIFQDWEAGLLVELVLKLRPQVFSPGDYICRKGDIGKEMYIIKEGKLAVVADDGVTQYALLSAGSCFGEISILNIKGSKMGNRRTANIRSLGYSDLFCLSKDDLMEAVTEYPDAKKVLEERGREILMKMGLLDENEVAASMEVDVQEKLEQLETNMDTLYTRFARLLAEYTGAQQKLKQRITVLETKMKQNHEDDYLSDGINTPEPTAAE
For the molecule B1, the “Imax^cGMP/Imax^cAMP” value in test [4] (+50 mV) was 0.16 ± 0.08; in test [4] (−50 mV), 0.09 ± 0.06. Moreover, the “current elicited by saturating cGMP as % of the current elicited by saturating cAMP” value in test [4] (excised patches) is 16% and < 20%. Besides, in test [5], the “forskolin concentration at which delay and rate of Ca2+ influx saturated” value came out at 20 µM.

For orientation: IC50 means the midpoint of a concentration-inhibition curve.
